Data on 1 variant can be found in IntAct's records for PubMed 19494114.

The labels stand for the following.
B1: Receptor-type tyrosine-protein phosphatase eta (Homo sapiens), Q12913 (parent)
chain: MKPAAREARLPPRSPGLRWALPLLLLLLRLGQILCAGGTPSPIPDPSVATVATGENGITQISSTAESFHKQNGTGTPQVETNTSEDGESSGANDSLRTPEQGSNGTDGASQKTPSSTGPSPVFDIKAVSISPTNVILTWKSNDTAASEYKYVVKHKMENEKTITVVHQPWCNITGLRPATSYVFSITPGIGNETWGDPRVIKVITEPIPVSDLRVALTGVRKAALSWSNGNGTASCRVLLESIGSHEELTQDSRLQVNISGLKPGVQYNINPYLLQSNKTKGDPLGTEGGLDASNTERSRAGSPTAPVHDESLVGPVDPSSGQQSRDTEVLLVGLEPGTRYNATVYSQAANGTEGQPQAIEFRTNAIQVFDVTAVNISATSLTLIWKVSDNESSSNYTYKIHVAGETDSSNLNVSEPRAVIPGLRSSTFYNITVCPVLGDIEGTPGFLQVHTPPVPVSDFRVTVVSTTEIGLAWSSHDAESFQMHITQEGAGNSRVEITTNQSIIIGGLFPGTKYCFEIVPKGPNGTEGASRTVCNRTVPSAVFDIHVVYVTTTEMWLDWKSPDGASEYVYHLVIESKHGSNHTSTYDKAITLQGLIPGTLYNITISPEVDHVWGDPNSTAQYTRPSNVSNIDVSTNTTAATLSWQNFDDASPTYSYCLLIEKAGNSSNATQVVTDIGITDATVTELIPGSSYTVEIFAQVGDGIKSLEPGRKSFCTDPASMASFDCEVVPKEPALVLKWTCPPGANAGFELEVSSGAWNNATHLESCSSENGTEYRTEVTYLNFSTSYNISITTVSCGKMAAPTRNTCTTGITDPPPPDGSPNITSVSHNSVKVKFSGFEASHGPIKAYAVILTTGEAGHPSADVLKYTYEDFKKGASDTYVTYLIRTEEKGRSQSLSEVLKYEIDVGNESTTLGYYNGKLEPLGSYRACVAGFTNITFHPQNKGLIDGAESYVSFSRYSDAVSLPQDPGVICGAVFGCIFGALVIVTVGGFIFWRKKRKDAKNNEVSFSQIKPKKSKLIRVENFEAYFKKQQADSNCGFAEEYEDLKLVGISQPKYAAELAENRGKNRYNNVLPYDISRVKLSVQTHSTDDYINANYMPGYHSKKDFIATQGPLPNTLKDFWRMVWEKNVYAIIMLTKCVEQGRTKCEEYWPSKQAQDYGDITVAMTSEIVLPEWTIRDFTVKNIQTSESHPLRQFHFTSWPDHGVPDTTDLLINFRYLVRDYMKQSPPESPILVHCSAGVGRTGTFIAIDRLIYQIENENTVDVYGIVYDLRMHRPLMVQTEDQYVFLNQCVLDIVRSQKDSKVDLIYQNTTAMTIYENLAPVTTFGKTNGYIA

In this assay the parent is B1. The note with it: with mk03_human MAPK3, P27361.
mk03_human MAPK3, P27361, sequence (P27361 whole entry): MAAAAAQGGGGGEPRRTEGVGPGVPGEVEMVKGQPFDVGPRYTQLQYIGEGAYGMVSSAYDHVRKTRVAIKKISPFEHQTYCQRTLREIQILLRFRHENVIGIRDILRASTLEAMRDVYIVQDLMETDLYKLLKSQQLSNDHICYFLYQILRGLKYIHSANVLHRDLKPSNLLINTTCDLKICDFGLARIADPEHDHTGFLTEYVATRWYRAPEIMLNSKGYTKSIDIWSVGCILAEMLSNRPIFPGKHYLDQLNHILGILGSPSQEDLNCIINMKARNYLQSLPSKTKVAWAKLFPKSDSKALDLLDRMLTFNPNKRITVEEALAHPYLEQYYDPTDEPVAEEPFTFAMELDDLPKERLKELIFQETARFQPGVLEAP
Take K1031A: the “effect of a mutation on the interaction” value is on record as “decreasing interaction”.
